Laboratory results published in US20150139990A1 (DAINIPPON SUMITOMO PHARMA, published 2015).

What was measured:
human CD81 mutant V135A = molecular target: T1, human CD81 mutant V135A (human, UniProt P60033 1-236, limits assumed); assay: ELISA
T1 construct: as m30; not shown: C-terminal V5 and 6xHis tags
T1 sequence: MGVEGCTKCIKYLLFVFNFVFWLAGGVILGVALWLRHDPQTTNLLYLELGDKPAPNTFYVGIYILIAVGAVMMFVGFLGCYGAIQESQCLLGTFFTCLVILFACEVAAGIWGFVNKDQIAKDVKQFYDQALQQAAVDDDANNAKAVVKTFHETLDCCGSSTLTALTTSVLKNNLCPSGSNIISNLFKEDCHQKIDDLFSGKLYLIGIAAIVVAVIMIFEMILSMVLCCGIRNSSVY
In short: (§1)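 Human CD81 point mutants in pcDNA-DEST40 with C-terminal V5 and 6×His tags were expressed transiently in CHO cells for 48 hours. Membranes were solubilised with 1% n-octylglucoside and loaded at 5 μg/100 μL/well on Ni-NTA His Sorb plates (3 hours, 4° C). Antibody binding (1 hour, room temperature) was detected with HRP anti-human IgG4, TMB and absorbance at 450 nm. Relative binding affinity is the percentage of wild-type CD81 binding, corrected for V5-tag expression.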

human CD81 mutant V169A = molecular target: T2, human CD81 mutant V169A (human, UniProt P60033 1-236, limits assumed); assay: ELISA
T2 construct: as m30; not shown: C-terminal V5 and 6xHis tags
T2 sequence: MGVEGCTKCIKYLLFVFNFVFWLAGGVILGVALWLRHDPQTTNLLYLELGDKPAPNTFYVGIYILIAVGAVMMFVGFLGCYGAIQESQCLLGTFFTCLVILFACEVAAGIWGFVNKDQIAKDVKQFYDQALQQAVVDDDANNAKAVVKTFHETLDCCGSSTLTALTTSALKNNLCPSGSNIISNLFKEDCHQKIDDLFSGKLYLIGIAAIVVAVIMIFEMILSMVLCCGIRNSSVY
In short: as §1

- relative binding affinity (human CD81 mutant V135A): < 20%
- relative binding affinity (human CD81 mutant V169A): < 20%
B1: 002-A07 IgG4 antibody (antibody)
heavy: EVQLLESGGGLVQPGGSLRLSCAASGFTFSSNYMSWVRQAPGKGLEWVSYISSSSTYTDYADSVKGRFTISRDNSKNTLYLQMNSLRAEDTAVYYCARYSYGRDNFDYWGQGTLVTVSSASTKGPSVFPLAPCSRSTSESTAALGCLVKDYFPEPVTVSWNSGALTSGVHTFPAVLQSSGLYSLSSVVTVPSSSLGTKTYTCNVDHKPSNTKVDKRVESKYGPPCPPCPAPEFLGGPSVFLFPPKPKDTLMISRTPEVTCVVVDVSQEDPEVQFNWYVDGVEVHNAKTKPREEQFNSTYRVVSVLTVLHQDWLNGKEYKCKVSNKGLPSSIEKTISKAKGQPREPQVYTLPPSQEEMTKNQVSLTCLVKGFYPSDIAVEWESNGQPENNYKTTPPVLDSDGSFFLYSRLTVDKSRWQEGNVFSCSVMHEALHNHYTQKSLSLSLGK
light: QSVLTQPPSASGTPGQRVTISCTGSTSNIGAGYDTHWYQQLPGTAPKLLIYGNSNRPSGVPDRFSGSKSGTSASLAISGLRSEDEADYYCQSYDTNLSVWVFGGGTKLTVLGQPKAAPSVTLFPPSSEELQANKATLVCLISDFYPGAVTVAWKADSSPVKAGVETTTPSKQSNNKYAASSYLSLTPEQWKSHRSYSCQVTHEGSTVEKTVAPTECS
notes: human IgG4 S228P, lambda light chain
